Among the targets are rat GLP-1R (rat) (UniProt P32301); mouse GCGR (mouse) (UniProt Q61606); rat GCGR (rat) (UniProt P30082); mouse GLP-1R (mouse) (UniProt O35659).
The target of experiment [1] is cynomolgus monkey GLP-1R (cynomolgus monkey).
In experiment [2] the target is cynomolgus monkey GCGR (cynomolgus monkey).
Experiment [3] has as its target human glucagon receptor (GCGR) (human) (UniProt P47871).
UniProt P47871, sequence (P47871 26-477): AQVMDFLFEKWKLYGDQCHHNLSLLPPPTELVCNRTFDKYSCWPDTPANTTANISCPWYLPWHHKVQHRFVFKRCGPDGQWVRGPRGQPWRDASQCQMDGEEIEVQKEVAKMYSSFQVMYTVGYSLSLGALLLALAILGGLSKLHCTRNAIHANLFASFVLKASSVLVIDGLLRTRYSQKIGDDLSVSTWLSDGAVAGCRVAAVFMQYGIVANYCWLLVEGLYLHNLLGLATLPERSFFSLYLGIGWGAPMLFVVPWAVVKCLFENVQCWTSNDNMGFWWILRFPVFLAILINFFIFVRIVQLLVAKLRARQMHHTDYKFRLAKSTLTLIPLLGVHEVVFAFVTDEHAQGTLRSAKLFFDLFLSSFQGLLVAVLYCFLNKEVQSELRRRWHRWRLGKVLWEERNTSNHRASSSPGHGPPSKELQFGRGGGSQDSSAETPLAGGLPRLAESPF

UniProt P32301, sequence (P32301 22-463): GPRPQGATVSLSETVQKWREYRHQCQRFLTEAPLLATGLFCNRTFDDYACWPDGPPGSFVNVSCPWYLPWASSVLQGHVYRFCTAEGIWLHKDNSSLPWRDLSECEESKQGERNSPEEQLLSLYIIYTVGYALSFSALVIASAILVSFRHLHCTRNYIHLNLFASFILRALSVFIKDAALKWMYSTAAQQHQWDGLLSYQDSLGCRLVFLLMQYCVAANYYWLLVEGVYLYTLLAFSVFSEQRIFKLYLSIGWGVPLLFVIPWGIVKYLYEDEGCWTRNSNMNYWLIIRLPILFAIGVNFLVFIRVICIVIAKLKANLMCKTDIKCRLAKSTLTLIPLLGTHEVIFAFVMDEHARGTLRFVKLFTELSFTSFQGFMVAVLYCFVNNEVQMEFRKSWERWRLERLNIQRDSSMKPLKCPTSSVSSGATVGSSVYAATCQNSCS
UniProt P30082, sequence (P30082 27-485): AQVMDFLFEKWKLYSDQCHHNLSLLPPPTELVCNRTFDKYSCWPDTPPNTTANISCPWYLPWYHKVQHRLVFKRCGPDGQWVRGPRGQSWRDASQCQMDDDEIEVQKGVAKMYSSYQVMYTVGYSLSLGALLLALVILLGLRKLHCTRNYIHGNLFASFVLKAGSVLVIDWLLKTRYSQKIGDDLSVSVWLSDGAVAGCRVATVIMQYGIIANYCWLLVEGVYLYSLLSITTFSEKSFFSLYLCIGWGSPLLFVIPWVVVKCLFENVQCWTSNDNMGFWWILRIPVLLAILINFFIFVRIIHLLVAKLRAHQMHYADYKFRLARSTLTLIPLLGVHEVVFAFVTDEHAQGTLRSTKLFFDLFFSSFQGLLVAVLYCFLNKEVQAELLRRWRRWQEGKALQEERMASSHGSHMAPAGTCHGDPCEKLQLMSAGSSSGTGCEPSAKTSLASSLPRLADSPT
UniProt O35659, sequence (O35659 22-463): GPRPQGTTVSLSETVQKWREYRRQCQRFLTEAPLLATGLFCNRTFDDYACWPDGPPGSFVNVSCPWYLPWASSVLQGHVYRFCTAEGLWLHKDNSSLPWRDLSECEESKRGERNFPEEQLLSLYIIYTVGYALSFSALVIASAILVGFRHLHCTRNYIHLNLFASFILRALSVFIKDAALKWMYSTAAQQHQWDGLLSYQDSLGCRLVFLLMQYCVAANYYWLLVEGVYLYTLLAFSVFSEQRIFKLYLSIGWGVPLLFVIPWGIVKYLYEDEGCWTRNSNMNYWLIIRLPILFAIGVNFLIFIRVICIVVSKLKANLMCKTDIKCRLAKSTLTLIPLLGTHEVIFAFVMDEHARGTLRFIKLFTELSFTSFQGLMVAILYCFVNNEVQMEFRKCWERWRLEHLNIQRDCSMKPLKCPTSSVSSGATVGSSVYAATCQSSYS
UniProt Q61606, sequence (Q61606 27-485): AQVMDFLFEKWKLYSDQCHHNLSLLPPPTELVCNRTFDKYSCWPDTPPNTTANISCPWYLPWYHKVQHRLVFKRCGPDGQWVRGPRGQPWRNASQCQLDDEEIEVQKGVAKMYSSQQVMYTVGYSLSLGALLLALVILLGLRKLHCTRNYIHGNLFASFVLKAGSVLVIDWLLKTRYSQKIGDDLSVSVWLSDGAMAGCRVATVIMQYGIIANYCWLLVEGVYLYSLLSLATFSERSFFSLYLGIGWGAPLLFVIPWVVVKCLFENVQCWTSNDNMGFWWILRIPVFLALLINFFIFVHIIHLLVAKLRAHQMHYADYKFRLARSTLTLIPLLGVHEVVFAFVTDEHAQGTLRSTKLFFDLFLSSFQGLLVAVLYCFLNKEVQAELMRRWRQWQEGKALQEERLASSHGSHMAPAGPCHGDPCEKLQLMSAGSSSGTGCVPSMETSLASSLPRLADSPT

Regarding native oxyntomodulin (peptide), in the experiment with rat GLP-1R (rat), the EC50 of cAMP in clonal HEK293 cells stably expressing rat GLP-1R was found to be 0.98 nM. Further, the EC50 of cAMP in clonal HEK293 cells stably expressing mouse GCGR in the experiment with mouse GCGR (mouse) is 6.31 nM. The substance further had an EC50 of cAMP in clonal HEK293 cells stably expressing cynomolgus monkey GLP-1R in experiment [1] of 0.8 nM. In the experiment with rat GCGR (rat), the EC50 of cAMP in clonal HEK293 cells stably expressing rat GCGR was 12.7 nM. The same substance returned an EC50 of cAMP in clonal HEK293 cells stably expressing mouse GLP-1R in the experiment with mouse GLP-1R (mouse) of 1.9 nM. In experiment [2], this substance displayed an EC50 of cAMP in clonal HEK293 cells stably expressing cynomolgus monkey GCGR of 0.49 nM. The substance further displayed an EC50 of cAMP in clonal HEK293 cells stably expressing human GCGR in experiment [3] of 3.01 nM.

(Values after paper PMC7531507.)
